Source: patent publication US20140287419A1, “Compositions Having Dicamba Decarboxylase Activity and Methods of Use” (priority 2013, published 2014)
“Also recorded” adds a separate entry of the source.

B1: SEQ ID NO:114: Design variant of SEQ ID NO: 1 (protein)
chain: MAQGKVALEEHFAIPETLQDSAGAVPGDYWKELQHRLLDIQDTRLKLMDAHGIETMILSLNAPAVQAIPDRRKAIEIARRANDVLAEECAKRPDRFLAFAALPLQDPDAATEELQRCVNDLGFVGALVNGFSQEGDGQTPLYYDLPQYRPFWGEVEKLDVPFYLHPRNPLPQDSRIYDGHPWLLGPTWAFAQETAVHALRLMASGLFDEHPRLNIILGHMGEGLPYMMWRIDHRVAWVKLPPRYPAKRRFMDYFNENFHITTSGNFRTQTLIDAILEIGADRILFSTDWPFENIDHASDWFNATSIAEADRVKIGRTNARRLFKLDGA
modifications: Dicamba decarboxylase variant clone DC.4.116
B2: SEQ ID NO:109: Design variant of SEQ ID NO: 1; designed mutation N235V (protein)
chain: MAQGKVALEEHFAIPETLQDSAGFVPGDYWKELQHRLLDIQDTRLKLMDAHGIETMILSLNAPAVQAIPDRRKAIEIARRANDVLAEECAKRPDRFLAFAALPLQDPDAATEELQRCVNDLGFVGALVNGFSQEGDGQTPLYYDLPQYRPFWGEVEKLDVPFYLHPRNPLPQDSRIYDGHPWLLGPTWAFAQETAVHALRLMASGLFDEHPRLNIILGHMGEGLPYMMWRIDHRVAWVKLPPRYPAKRRFMDYFNENFHITTSGNFRTQTLIDAILEIGADRILFSTDWPFENIDHASDWFNATSIAEADRVKIGRTNARRLFKLDGA
modifications: Dicamba decarboxylase variant clone DC.4.032
notes: designed mutation N235V
B3: SEQ ID NO:110: Design variant of SEQ ID NO: 1 (protein)
chain: MAQGKVALEEHFAIPETLQDSMGFVPGDYWKELMHRLLDIQDTRLKLMDAHGIETMILSLNAPAVQAIPDRRKAIEIARRANDVLAEECAKRPDRFLAFAALPLQDPDAATEELQRCVNDLGFVGALVNGFSQEGDGQTPLYYDLPQYRPFWGEVEKLDVPFYLHPRNPLPQDSRIYDGHPWLLGPTWAFAQETAVHALRLMASGLFDEHPRLNIILGHMGEGLPYMMWRIDHRMAWVKLPPRYPAKRRFMDYFNENFHITTSGNFRTQTLIDAILEIGADRILFSTDWPFENIDHASDWFNATSIAEADRVKIGRTNARRLFKLDGA
modifications: Dicamba decarboxylase variant clone DC.4.111
B4: SEQ ID NO:116: Design variant of SEQ ID NO: 41; new 35 amino acid N-terminal loop (protein)
chain: MAQGKVALEEHFAIPETLQDAAGFVPGDYWKELQHRLLDIQDRRVRLMDEHGIETMILSLNAPAVQAIADSTRANETARRANDFLAEQVAKQPTRFRGFAALPMQDPELAARELERCVKELGFVGALVNGFSQDNRSAVPLYYDMAQYWPFWETVQALDVPFYLHPRNPLPSDARIYDGHAWLLGPTWAFGQETAVHALRLMGSGLFDKYPALKIILGHMGEGLPYSMWRIDHRNAWIKTTPKYPAKRKIVDYFNENFYLTTSGNFRTQTLIDAILEIGADRILFSTDWPFENIDHAADWFENTSISEADRKKIGWGNAQNLFKLNR
modifications: Dicamba decarboxylase variant clone DC.30.007
notes: new 35 amino acid N-terminal loop
B5: SEQ ID NO:115: Design variant of SEQ ID NO: 1 (protein)
chain: MAQGKVALEEHFAIPDTLTTYTTSGDYEKELKHRLLDIQDTRLKLMDAHGIETMILSLNAPGVQAIPDRRKAIEIARRANDVLAEECAKRPDRFLAFAALPLQDPDAATEELQRCVNDLGFVGALVNGFSQEGDGQTPLYYDLPQYRPFWGEVEKLDVPFYLHPRNPLPQDSRIYDGHPWLLGPTWAFAQETAVHALRLMASGLFDEHPRLNIILGHMGEGLPYMMWRIDHRNAWVKTPPRYPAKRRFMDYFNENFHITTSGNFRTQTLIDAILEIGADRILFSTDWPFENIDHASDWFNATSIAEADRVKIGRTNARRLFKLDGA
modifications: Dicamba decarboxylase variant clone DC.4.161
B6: SEQ ID NO:32: o-pyrocatechuate decarboxylase, Streptomyces violaceusniger Tu 4113 (protein)
chain: MARIIAIEEHFLDLDIARASRPEAERLSPAFAAAYGAGQGYNYSPAPEVLLDLEEGRVADMDAHGISMQVLSSLSTQQLPADVAVELVRKVNDRAAAAVAARPDRFAAFAALPTTVPEAAADELDRAVGELGFVGSMINGRTGDAFLDAPRFDAVLRRSAELRVPVYLHPGVPPVETSRSNYEGGLDPIVTARLQTSAWGWHVETGIHFLHLVLAGVFDRYPDLQVILGHWGEMVPFFLERIEEALPQQITHLDRPVGAYFRENAHITPSGMFSQAQLQFCVETVGIERIMFSVDYPFLGNDGAEAFLRQANLPPLATEKIAHLNAERLLALPS
modifications: Streptomyces violaceusniger
B7: SEQ ID NO:108: hypothetical protein SAV2580, Staphylococcus aureus subsp. aureus Mu50 (protein, listed as Staphylococcus aureus)
chain: MAKSITFEEHYVIEDIQKETMNAISADPKGVPMKVMLEGLEKKTGFTNADELSHHDERIQFMNNQDVQIQVLSYGNGSPSNLVGQKAIELCQKANDQLANYIAQYPNRFVGFATLPINEPEAAAREFERCINDLGFKGALIMGRAQDGFLDQDKYDIIFKTAENLDVPIYLHPAPVNSDIYQSYYKGNYPEVTAATFACFGYGWHIDVGIHAIHLVLSGIFDRYPKLNMIIGHWGEFIPFFLERMDEALFAEHLNHSVSYYFKNSFYITPSGMLTKPQFDLVKKEVGIDRILYAADYPYIEPEKLGVFLDELGLTDEEKEKISYTNGAKLLGLSSNN

Experiments:
[1] = 14C assay with purified protein (14CO2 captured on Ca(OH)2 filter paper); type: biochemical; details: [14C]-carboxyl-labeled dicamba
[2] = Detection of 4-chloro-3-methoxy phenol product by LC-MS/MS; type: biochemical; details: purified protein
Procedure: The decarboxylated and chloro hydrolyzed product, 4-chloro-3-methoxy phenol (FIG. 1D), is measured using a LC-MS/MS analytical procedure. […] 10 ul is removed from the reaction mixture and mixed with 90 ul pre-chilled methanol followed by centrifugation at 14,000 rpm for 15 min at 4° C. 10 ul of the supernatant is then transferred into 170 ul ddH2O to achieve 5% methanol solution for injection. 50 ul of the prepared sample is injected into a 4000 Q Trap LC-MS/MS system for sample analysis. LC-MS/MS parameters are: Mobile Phase A, 2 mM ammonium acetate in water; Mobile Phase B, 2 mM ammonium acetate in methanol; Column, Aquasil, 100×2.1 mm, 3 μm, C18 column; Flow Rate, 0.6 ml/min. The MS/MS fragment 157/142 which is common to 4-chloro-3-methoxy phenol, 2-chloro-5-methoxy phenol, and 3-chloro-5-methoxy phenol is monitored at a retention time of 2.88 min.

[3] = Detection of 2,5-DCP product by GC/MS; type: biochemical; details: purified protein
Procedure: The decarboxylated and demethylated product of dicamba, 2,5-dichloro phenol or 2,5-DCP (FIG. 1E) is measured using a GC/MS analytical procedure with either liquid injection after liquid/liquid extraction using toluene as the extraction solvent or gas injection using head space method. The head space sample analysis is carried out on an Agilent GC/MS system with a 6890A GC, a 5973N MSD and a CTC CombiPAL auto-sampler or with a 7890A GC, a 5975C MSD and an Agilent GC Sampler 80 auto-sampler with Phenomenex ZB-MultiResidue-1 column (30 m length, 0.25 mm diameter, 0.25 um film) or equivalent. GC/MS parameters are: GC inlet temperature, 200° C.; Carry gas, helium in constant flow mode (1.2 mL/min); Oven temperature program, 70° C. for 1 min and then ramp to 275° C. at 40° C./min. […] The reaction vial is transferred to a agitator for incubation at 90° C. for 4 min at 500 rpm. With a syringe preheated at 110° C., 1000 uL of head space is injected with sample fill speed at 100 uL/sec. A 2-mm diameter liner is used in sample inlet. The MS data acquisition is done in SIM (selected ion monitoring) mode. The positive ion at M/Z 162 for the molecular ion of 2,-5-DCP is monitored at retention time of 4.06 min. Solvent delay for MS acquisition is set at 3 min. GC/MS parameters for liquid sample analysis are the same as those for head space analysis, except that the volume of liquid injection is 1 uL.

[4] = Dicamba decarboxylation activity of computationally designed protein variants; details: native protein or designed variant versus parent
[5] = 14C assay with IPTG-induced recombinant E. coli cells (14CO2 capture from [14C]-carboxyl-labeled dicamba); details: E. coli cell assay, 108 sequences tested

Molecule	CO2 product [1]	4-chloro-3-methoxy phenol product [2]	2,5-DCP product [3]	Dicamba Decarboxylase Activity [4]	decarboxylation activity of dicamba [5]
B1	detected	detected	detected	displays an increase in dicamba decarboxylase activity	
B2	detected	detected	detected	more active than their parent sequence; also recorded: displays an increase in dicamba decarboxylase activity	
B3	detected	detected	detected	displays an increase in dicamba decarboxylase activity	
B4	detected	detected	detected	displays an increase in dicamba decarboxylase activity	
B5	detected	detected	detected	displays an increase in dicamba decarboxylase activity	
B6	detected	detected	detected		showed decarboxylation activity of dicamba
B7	detected	detected	detected		showed decarboxylation activity of dicamba
